Literature values as cited in PMC7509490.
pKd: −log10 of the molar value.

Molecular target: G-actin (Oryctolagus cuniculus) (UniProt P68135)

pKd: 6.70
Substance: Profilin (from UniProt P07274)
